Assay [1] has as its target T1, human PCSK9 (proprotein convertase subtilisin kexin type 9) (human, UniProt Q8NBP7 31-692). Briefly: cell-based or functional assay.
For assay [2], the target named is T1, human PCSK9 (proprotein convertase …). Briefly: BLI (Octet Red), 37 C. Here is the method: (§1) Tips were then immersed into a buffer-only well for observation of Adnectin dissociation. Experiments were performed in a temperature controlled environment at either 25 or 37° C., and the oscillation speed was set at 1500 rpm.
(§2) Binding interaction analysis was performed using proprietary software from Fortebio (Fortebio Data Analysis Software version 6.3.0.36). Global fits were performed for all samples, using a 1:1 binding model. The nature of these global fits constrained all values of concentration to a single pair of association and dissociation rates that were themselves constrained to each other. Affinities (KD), association and dissociation rates were averaged over the various loading levels used in the analysis.
(In general: In BLI a coated tip is dipped into the sample, and binding shifts an interference pattern.)

For assay [3] the target is unchanged. Briefly: PCSK9:EGFA FRET, competitor EGFA peptide.
Assay [4] deals with T2, human PCSK9 (proprotein convertase subtilisin kexin type 9) (human, UniProt Q8NBP7 31-692).
T2 construct: Directly immobilized (SPR ProteOn), biotinylated (BLI), or in solution, depending on the assay; also called hPCSK9
Nature of the assay: FRET direct binding, anti-his6 antibody. From the text: (§3) Table 11 summarizes the overall data from these three FRET assays.

Assay [5] addresses T2, human PCSK9 (proprotein convertase …). Briefly: BLI Octet Red, 37 C. Here is the method:
as §1, §2

Assay [6] has the same target. Nature of the assay: FRET, competitor ATI001125.
From the text: as §3

For assay [7] the target is unchanged. Nature of the assay: BLI, biotinylated hPCSK9 on sensor tips. On the procedure: as §1, §2
Assay [8] concerns the target cynomolgus monkey PCSK9 (cynomolgus monkey, UniProt A0A7N9D9N8 150-747). Briefly: FRET, competitor EGFA peptide.
From the text: as §3

Assay [9] concerns the target T2, human PCSK9 (proprotein convertase …). Nature of the assay: FRET, competitor EGFA peptide.
From the text: as §3

A word on the Kd: it is the concentration at which binding is half-saturated. In general, EC50 refers to the concentration needed to bring the measured effect to its halfway point. Broadly, the IC50 is the concentration that inhibits the measured activity by half. What is called koff is the rate constant with which the complex falls apart. One may read the kon as a measure of how fast the partners come together.

Residue numbers refer to the chain shown, from its start.

B1: 2451H07 (designed binder)
chain: MGITDVPRDLEVVAATPTSLLISWNPPDVNYGYYRITYGETGGNSPLQEFTVPVSKGTATISGLKPGVDYTITVYAVEYPYAHAGYYHRPISINYRTEIDKPSQHHHHHH
As to B1, the “LDLR Depletion (% inhibition at 75 nM)” value in [1] amounted to 88.8%. The Kd in assay [2] was found to be 2.08 nM. The same molecule showed an EC50 in [3] of 0.2 nM.

B2: 2451C06 (designed binder)
chain: MGVSDVPRDLEVVAATPTSLLISWDAPAGAASYGYYRITYGETGGNSPVQEFTVPVSKGTATISGLKPGVDYTITVYAVEFPFPGAGYYHRPISINYRTEIDKPSQHHHHHH
Turning to B2, the “LDLR Depletion (% inhibition at 75 nM)” value in assay [1] worked out at 89.4%. The molecule also yielded a dissociation constant Kd in assay [2] of 1.27 nM. In assay [3], this molecule yielded an EC50 of 1.2 nM.

B3: 2382B09 (designed binder)
chain: MGVSDVPRDLEVVAATPTSLLISWDAPADAYGYYRITYGETGGNSPVQEFTVPVSKGTATISGLKPGVDYTITVYAVEFDYPGSGYYHRPISINYRTEIDKPSQHHHHHH
For B3, the “LDLR Depletion (% inhibition at 75 nM)” value in assay [1] came to 105%. In addition, the Kd in assay [2] is 0.656 nM. The molecule also displayed a concentration giving a half-maximal response (EC50) in assay [3] of 3.8 nM.

B4: 2382D09 (designed binder)
chain: B3 chain with D29E, A30G, Y81F, S84A
For B4, in assay [1], the “LDLR Depletion (% inhibition at 75 nM)” value stood at 109%. In assay [2], the Kd is 0.304 nM. Moreover, the EC50 in assay [3] was 2.6 nM.

B5: 2971A09 (designed binder)
chain: B3 chain with A30D, V54I, S55G, D80P, Y81W, G83H, S84A
Regarding B5, the “LDLR Depletion (% inhibition at 75 nM)” value in [1] worked out at 132%. In assay [2], this molecule registered a Kd of 2.79 nM.

B6: 2382H09 (designed binder)
chain: B3 chain with D29A, V54S, Y81F
For B6, in assay [1], the “LDLR Depletion (% inhibition at 75 nM)” value came out at 101%. In assay [2], the Kd is 1.86 nM. This molecule displayed a 50% effective concentration (EC50) in assay [3] of 0.9 nM.

B7: 2382B10 (designed binder)
chain: B3 chain with V54S, F79Y, Y81F
For the molecule B7, the “LDLR Depletion (% inhibition at 75 nM)” value in assay [1] came out at 100%. This molecule also had a Kd in assay [2] of 2.35 nM. This molecule also showed an EC50 in assay [3] of 3 nM.

B8: 2382C09 (designed binder)
chain: B3 chain with D29E, A30G, Y81F
Turning to B8, the “LDLR Depletion (% inhibition at 75 nM)” value in [1] was 122%. In [2], the Kd came to 0.757 nM. For the same molecule, a half-maximal effect in assay [3] (EC50) was put at 3.5 nM.

B9: 2382B09 (designed binder)
chain: B3 chain
notes: Anti-PCSK9 Adnectin, His6-tagged
On to B9, for which the 50% effective concentration (EC50) in [4] came to 4 nM; in assay [8] it was 37.2 nM; in assay [9], 3.8 nM. The Kd in assay [5] and in assay [7] was 0.656 nM in each case. The IC50 in assay [6] was found to be 0.6 nM; in assay [9] it was 3.8 nM. The same molecule registered a dissociation rate constant (koff) in [7] of 0.000291 s⁻¹. In assay [7], this molecule showed a kon of 451000 M⁻¹ s⁻¹.

B10: 2382H10 (designed binder)
chain: B3 chain with D29G, A30G, Y81F
Regarding B10, the “LDLR Depletion (% inhibition at 75 nM)” value in assay [1] worked out at 119%. The same molecule showed a Kd in [2] of 1.4 nM. Moreover, the response in assay [3] was half-maximal at 2.6 nM (EC50).

B11: 2971E02 (designed binder)
chain: B3 chain with A28S, A30D, V54I, S55G, D80P, Y81W, G83H, S84A
B11: the “LDLR Depletion (% inhibition at 75 nM)” value in assay [1] was 126%. For the same molecule, the Kd in [2] is 1.78 nM.

B12: 2971A03 (designed binder)
chain: B3 chain with A26P, A28S, A30D, V54I, S55G, D80P, Y81W, G83H, S84A
As for B12, the “LDLR Depletion (% inhibition at 75 nM)” value in assay [1] was found to be 120%. Moreover, in assay [2], the Kd turned out to be 0.806 nM.

B13: 2382D05 (designed binder)
chain: MGVSDVPRDLEVVAATPTSLLISWDAPADGGYGYYRITYGETGGNSPVQEFTVPVSKGTATISGLKPGVDYTITVYAVEFDFPGAGYYHRPISINYRTEIDKPSQHHHHHH
For B13, the affinity in assay [2], expressed as Kd, was 0.314 nM. This molecule returned a concentration for a half-maximal effect (EC50) in assay [3] of 2.6 nM.

B14: 2381B08 (designed binder)
chain: B13 chain with V55S, F80Y, D81T
On to B14, for which the “LDLR Depletion (% inhibition at 75 nM)” value in assay [1] stood at 125%. This molecule also displayed an equilibrium dissociation constant (Kd) in assay [2] of 4.11 nM. In [3], this molecule showed an EC50 of 2.6 nM.

B15: 2381F11 (designed binder)
chain: B13 chain with G58S, F80Y, D81T
Regarding B15, the “LDLR Depletion (% inhibition at 75 nM)” value in assay [1] came out at 110%. Binding in [2] was characterised by a dissociation constant (Kd) of 1.59 nM. In addition, in assay [3], the response was half-maximal at 4 nM (EC50).

B16: 2382E03 (designed binder)
chain: B13 chain with D29G, G30D
On to B16, for which the “LDLR Depletion (% inhibition at 75 nM)” value in assay [1] worked out at 89.5%. This molecule also gave a Kd in assay [2] of 2.94 nM. Besides, the half-maximal effective concentration (EC50) in assay [3] was 2.4 nM.

B17: 2382D03 (designed binder)
chain: B13 chain with G30E, G31A
Regarding B17, in assay [1], the “LDLR Depletion (% inhibition at 75 nM)” value was determined as 80.4%. Besides, in assay [2], the Kd is 1.53 nM. In addition, in assay [3], the midpoint of the response, the EC50, lay at 3.3 nM.

B18: 2382C05 (designed binder)
chain: B13 chain with G31A, F80Y, D81S
As to B18, in assay [1], the “LDLR Depletion (% inhibition at 75 nM)” value was determined as 105%. In [2], this molecule gave a Kd of 2.49 nM. This molecule also gave an EC50 in assay [3] of 4 nM.

B19: 2382H03 (designed binder)
chain: B13 chain with D29E, G31A, F80Y, D81P, F82Y, G84F
For B19, in assay [1], the “LDLR Depletion (% inhibition at 75 nM)” value amounted to 102%. Further, in assay [2], the equilibrium dissociation constant (Kd) was 0.677 nM. A half-maximal response in [3] (EC50) required 3.4 nM.

B20: 2381H09 (designed binder)
chain: B13 chain with D29G, P83V
On to B20, for which the “LDLR Depletion (% inhibition at 75 nM)” value in assay [1] came to 94.4%. Also, the affinity in assay [2], expressed as Kd, was 3.23 nM. Further, in [3], the concentration giving a half-maximal response (EC50) amounted to 3.4 nM.

B21: 2382E05 (designed binder)
chain: B13 chain with D29E
Turning to B21, the “LDLR Depletion (% inhibition at 75 nM)” value in assay [1] is 104%. Also, the affinity in [2], expressed as Kd, was 0.604 nM. This molecule came in with a 50% effective concentration (EC50) in assay [3] of 2.8 nM.

B22: 2381G09 (designed binder)
chain: B13 chain with D29G, G30D, D81T
Consider B22, for which the “LDLR Depletion (% inhibition at 75 nM)” value in assay [1] came to 133%. The same molecule registered a Kd in assay [2] of 1.12 nM. Also, the EC50 in [3] was determined as 3.1 nM.

B23: 2382G04 (designed binder)
chain: B13 chain with D29G, V55S
Regarding B23, in assay [1], the “LDLR Depletion (% inhibition at 75 nM)” value stood at 146%. This molecule also displayed an equilibrium dissociation constant (Kd) in assay [2] of 1.11 nM. The molecule further came in with a 50% effective concentration (EC50) in assay [3] of 2.9 nM.

B24: 2381B02 (designed binder)
chain: MGVSDVPRDLEVVAATPTSLLISWEPFSRLPGGGEYYRITYGETGGNSPLQQFTVPGSKGTATISGLKPGVDYTITVYAVEYPYDYSGYYHRPISINYRTEIDKPSQHHHHHH
As to B24, the “LDLR Depletion (% inhibition at 75 nM)” value in [1] was determined as 125%. Also, in assay [2], the Kd worked out at 3.29 nM. Moreover, the EC50 in assay [3] turned out to be 2.5 nM.

B25: 2381B04 (designed binder)
chain: B24 chain with D85E, Y86H
For the molecule B25, the “LDLR Depletion (% inhibition at 75 nM)” value in assay [1] was 122%. For the same molecule, the affinity in assay [2], expressed as Kd, was 0.527 nM. The EC50 in assay [3] turned out to be 2.4 nM.

B26: 2381D04 (designed binder)
chain: B24 chain with Y82F, Y86H
Regarding B26, the “LDLR Depletion (% inhibition at 75 nM)” value in [1] worked out at 119%. For the same molecule, in assay [2], the Kd is 0.237 nM. Further, the concentration giving a half-maximal response (EC50) in [3] was found to be 2.9 nM.

B27: 2382F05 (designed binder)
chain: MGVSDVPRDLEVVAATPTSLLISWDAPAEAGKHYGYYRITYGETGGNSPVQEFTVPVSKGTATISGLKPGVDYTITVYAVEFDFPGAGYYHRPISINYRTEIDKPSQHHHHHH
As for B27, in assay [1], the “LDLR Depletion (% inhibition at 75 nM)” value was 72.2%. In assay [2], this molecule gave an equilibrium dissociation constant (Kd) of 4.54 nM. For the same molecule, in [3], the 50% effective concentration (EC50) is 2.4 nM.

The values above are taken from patent publication US20120094909A1 (Bristol-Myers Squibb, published 2012).
